Where two headings read alike, the source gives them in different places. Where a SMILES comes first, the peptide text is derived from it. [ ]: non-standard residue; d: D form. The star is where a group is joined. ξ: configuration not given here. X1 = CN1/C(=C/C=C/C=C/C2=[N+](CCCCCC(=O)*)c3ccc(S(=O)(=O)O)cc3C2(C)C)C(C)(C)c2cc(S(=O)(=O)[O-])ccc21; X3 = CN1/C(=C/C=C/C=C/C2=[N+](CCCCCC(=O)*)c3ccc(S(=O)(=O)[O-])cc3C2(C)C)C(C)(C)c2cc(S(=O)(=O)O)ccc21; DOTA = O=C(O)CN1CCN(CC(=O)O)CCN(CC(=O)*)CCN(CC(=O)O)CC1; EuK = O=C(O)CC[C@H](NC(=O)N[C@@H](CCCCN*)C(=O)O)C(=O)O; X2 = O=C(O)CC[C@@H](NC(=O)N[C@H](CCCCN*)C(=O)O)C(=O)O; 2Nal = N[C@@H](Cc1ccc2ccccc2c1)C(=O)O; d2Nal = N[C@H](Cc1ccc2ccccc2c1)C(=O)O; Trx = NC[C@H]1CC[C@H](C(=O)O)CC1; ξK = NCCCCC(N)C(=O)O; βAla = NCCC(=O)O; Sar = CNCC(=O)O

For data set [1], the system named is PSMA+-cells (LNCaP). The data set is described as follows: Cell surface binding and internalization experiments. The data set is classed as cell-based. The note with it: 68Ga-labeled compounds, 30 nM, 45 min 37 °C, specific uptake by blockage with 500 μM 2-PMPA, mean ± SD n=3. Here is the method:
For internalization experiments, 10^5 cells per well were seeded in poly-L-lysine coated 24-well cell culture plates 24 h before incubation. After washing, the cells were incubated with 30 nM of the radiolabeled compound for 45 min at 37° C. Cellular uptake was terminated by washing 3 times with 1 mL of ice-cold PBS. To remove surface-bound radioactivity, cells were incubated twice with 0.5 mL glycine-HCl in PBS (50 mM, pH=2.8) for 5 min. The cells were washed with 1 mL of ice-cold PBS and lysed using 0.3 N NaOH (0.5 mL). The surface-bound and the internalized fractions were measured in a gamma counter. The cell uptake was calculated as percent of the initially added radioactivity bound to 10^5 cells [% ID/10^5 cells].

For data set [2], the target named is T1, PSMA (Homo sapiens, UniProt Q04609).
T1 construct: determined in vitro using PSMA^+-cells (LNCaP); host or cells: LNCaP cells
T1 sequence (Q04609 whole entry): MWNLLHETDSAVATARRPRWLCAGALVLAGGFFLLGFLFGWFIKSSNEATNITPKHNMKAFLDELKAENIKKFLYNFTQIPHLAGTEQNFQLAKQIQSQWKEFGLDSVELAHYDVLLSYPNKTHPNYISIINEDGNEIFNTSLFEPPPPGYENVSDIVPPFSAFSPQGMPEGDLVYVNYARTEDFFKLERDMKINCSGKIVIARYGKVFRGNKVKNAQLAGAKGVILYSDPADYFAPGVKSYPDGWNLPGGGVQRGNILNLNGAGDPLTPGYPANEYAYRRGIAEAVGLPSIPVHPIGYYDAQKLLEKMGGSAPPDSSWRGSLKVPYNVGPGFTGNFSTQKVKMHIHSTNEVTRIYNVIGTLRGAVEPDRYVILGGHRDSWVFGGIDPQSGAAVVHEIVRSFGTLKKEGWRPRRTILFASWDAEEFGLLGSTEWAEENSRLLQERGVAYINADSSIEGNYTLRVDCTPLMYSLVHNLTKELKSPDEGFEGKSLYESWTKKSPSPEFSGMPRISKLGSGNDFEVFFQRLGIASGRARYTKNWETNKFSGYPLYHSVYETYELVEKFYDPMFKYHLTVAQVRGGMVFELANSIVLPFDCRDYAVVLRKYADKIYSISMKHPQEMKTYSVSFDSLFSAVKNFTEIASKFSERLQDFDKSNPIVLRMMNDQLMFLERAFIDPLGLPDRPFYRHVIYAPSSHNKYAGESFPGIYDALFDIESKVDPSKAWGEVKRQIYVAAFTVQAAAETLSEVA
The following applies: cited from earlier work.

Data set [3] in a line: in vivo. The arrangement: species or system BALB/c nu/nu mice. The following applies: male, BALB/c nu/nu, mouse, iv, 0.06 nmol, total radioactivity; for tissue to tissue ratio at 1 h: LNCaP Tumor-to-Organ ratio; for tissue uptake at 1 h: Organ distribution.
For data set [4], the system named is LNCaP xenograft tumors. The note with it: cited from earlier work.

Turning to `CN(CC(=O)NC[C@H]1CC[C@H](C(=O)N[C@@H](Cc2ccc3ccccc3c2)C(=O)NCCCC[C@H](NC(=O)N[C@@H](CCC(=O)O)C(=O)O)C(=O)O)CC1)C(=O)CN(C)C(=O)CN(C)C(=O)CN(C)C(=O)CN(C)C(=O)[C@H](CCCCNC(=O)CN1CCN(CC(=O)O)CCN(CC(=O)O)CCN(CC(=O)O)CC1)NC(=O)CN(C)C(=O)CN(C)C(=O)CN(C)C(=O)CN(C)C(=O)CN(C)C(=O)CCNC(=O)CCCCC[N+]1=C(/C=C/C=C/C=C2/N(C)c3ccc(S(=O)(=O)O)cc3C2(C)C)C(C)(C)c2cc(S(=O)(=O)[O-])ccc21` [BP-1, Glu-urea-Lys-2-Nal-Chx-Sar5-Lys(DOTA)-Sar5-bAla-sulfoCy5] ({X3-βAla}-[Sar][Sar][Sar][Sar][Sar]K(DOTA)[Sar][Sar][Sar][Sar][Sar][Trx][2Nal]-EuK), in data set [1], the “Specifically cell surface bound” value stood at 1.3 ± 0.6 % AR/10^5 cells and the Specifically internalized is 1.1 ± 1.0 % AR/10^5 cells.
On to `CN(CC(=O)NC[C@H]1CC[C@H](C(=O)N[C@@H](Cc2ccc3ccccc3c2)C(=O)NCCCC[C@H](NC(=O)N[C@@H](CCC(=O)O)C(=O)O)C(=O)O)CC1)C(=O)CN(C)C(=O)CN(C)C(=O)CN(C)C(=O)CN(C)C(=O)[C@H](CCCCNC(=O)CCCCC[N+]1=C(/C=C/C=C/C=C2/N(C)c3ccc(S(=O)(=O)O)cc3C2(C)C)C(C)(C)c2cc(S(=O)(=O)[O-])ccc21)NC(=O)CN(C)C(=O)CN(C)C(=O)CN(C)C(=O)CN(C)C(=O)CN(C)C(=O)CCNC(=O)CN1CCN(CC(=O)O)CCN(CC(=O)O)CCN(CC(=O)O)CC1` [BP-4, Glu-urea-Lys-2-Nal-Chx-Sar5-Lys(sulfoCy5)-Sar5-bAla-DOTA] ({DOTA-βAla}-[Sar][Sar][Sar][Sar][Sar]K(X3)[Sar][Sar][Sar][Sar][Sar][Trx][2Nal]-EuK), for which, in data set [1], the “Specifically cell surface bound” value was found to be 0.8 ± 1.0 % AR/10^5 cells and the Specifically internalized amounted to 0.4 ± 0.7 % AR/10^5 cells.
Usually Ki stands for the dissociation constant of the complex between target and ligand, obtained from inhibition or displacement. For `O=C(O)CC[C@H](NC(=O)N[C@@H](CCCCNC(=O)[C@H](Cc1ccc2ccccc2c1)NC(=O)[C@H]1CC[C@H](CNC(=O)CN2CCN(CC(=O)O)CCN(CC(=O)O)CCN(CC(=O)O)CC2)CC1)C(=O)O)C(=O)O` [PSMA-617, reference compound], in data set [1], the “Specifically cell surface bound” value worked out at 0.3 ± 0.1 % AR/10^5 cells and the Specifically internalized is reported as 1.2 ± 0.6 % AR/10^5 cells. In addition, the Ki in data set [2] (ki-value for PSMA-617 from Benesova et al. (3), read-out: ki free ligands) was 2.3 ± 2.9 nM.
The tissue uptake is the share of the injected amount in each gram of the tissue. As to `CN(CC(=O)NC[C@H]1CC[C@H](C(=O)N[C@H](Cc2ccc3ccccc3c2)C(=O)NCCCC[C@@H](NC(=O)N[C@H](CCC(=O)O)C(=O)O)C(=O)O)CC1)C(=O)CN(C)C(=O)CN(C)C(=O)CN(C)C(=O)CN(C)C(=O)C(CCCCNC(=O)CN1CCN(CC(=O)O)CCN(CC(=O)O)CCN(CC(=O)O)CC1)NC(=O)CN(C)C(=O)CN(C)C(=O)CN(C)C(=O)CN(C)C(=O)CN(C)C(=O)CCNC(=O)CCCCC[N+]1=C(/C=C/C=C/C=C2/N(C)c3ccc(S(=O)(=O)[O-])cc3C2(C)C)C(C)(C)c2cc(S(=O)(=O)O)ccc21` (stereo partly shown) [^177Lu-BP-1, metal not drawn] ({X1-βAla}-[Sar][Sar][Sar][Sar][Sar][ξK](DOTA)[Sar][Sar][Sar][Sar][Sar][Trx][d2Nal]-X2), the tissue to tissue ratio at 1 h in data set [3] (Blood) is 40 ± 4.75; in data set [3] (Brain) it was 423 ± 81.3; in data set [3] (Heart), 64.5 ± 12.8; in data set [3] (Intestine), 76.3 ± 13.1; in data set [3] (Kidney), 0.34 ± 0.04; in data set [3] (Liver) it was 27.8 ± 5.94. Also, the tissue to tissue ratio at 1 h in data set [3] (Lung) amounted to 18.2 ± 4.54; in data set [3] (Muscle), 165 ± 31.4; in data set [3] (Spleen), 8.05 ± 1.05. Moreover, the tissue uptake at 1 h turned out to be 0.16 ± 0.02 %ID/g in data set [3] (Blood); 0.02 ± 0.001 %ID/g in data set [3] (Brain); 0.1 ± 0.004 %ID/g in data set [3] (Heart); 0.08 ± 0.01 %ID/g in data set [3] (Intestine); 18.9 ± 4.56 %ID/g in data set [3] (Kidney); 0.24 ± 0.03 %ID/g in data set [3] (Liver). In addition, the tissue uptake at 1 h turned out to be 0.38 ± 0.03 %ID/g in data set [3] (Lung), 0.04 ± 0.004 %ID/g in data set [3] (Muscle), 0.78 ± 0.03 %ID/g in data set [3] (Spleen) and 5.85 ± 1.16 %ID/g in data set [3] (Tumor LNCaP).
For `CN(CC(=O)NC[C@H]1CC[C@H](C(=O)N[C@H](Cc2ccc3ccccc3c2)C(=O)NCCCC[C@@H](NC(=O)N[C@H](CCC(=O)O)C(=O)O)C(=O)O)CC1)C(=O)CN(C)C(=O)CN(C)C(=O)CN(C)C(=O)CN(C)C(=O)C(CCCCNC(=O)CCCCC[N+]1=C(/C=C/C=C/C=C2/N(C)c3ccc(S(=O)(=O)[O-])cc3C2(C)C)C(C)(C)c2cc(S(=O)(=O)O)ccc21)NC(=O)CN(C)C(=O)CN(C)C(=O)CN(C)C(=O)CN(C)C(=O)CN(C)C(=O)CCNC(=O)CN1CCN(CC(=O)O)CCN(CC(=O)O)CCN(CC(=O)O)CC1` (stereo partly shown) [^177Lu-BP-4, metal not drawn] ({DOTA-βAla}-[Sar][Sar][Sar][Sar][Sar][ξK](X1)[Sar][Sar][Sar][Sar][Sar][Trx][d2Nal]-X2), the tissue to tissue ratio at 1 h in data set [3] (Blood) is 25.9 ± 9.14; in data set [3] (Brain) it was 275 ± 63.6; in data set [3] (Heart) it was 48.6 ± 15.7; in data set [3] (Intestine), 49.3 ± 18.2; in data set [3] (Kidney), 0.17 ± 0.08; in data set [3] (Liver), 36.1 ± 6.7. For the same compound, the tissue to tissue ratio at 1 h in data set [3] (Lung) stood at 12.1 ± 2.03; in data set [3] (Muscle), 110 ± 51.7; in data set [3] (Spleen), 7.83 ± 0.85. The tissue uptake at 1 h was determined as 0.23 ± 0.08 %ID/g in data set [3] (Blood); 0.02 ± 0.002 %ID/g in data set [3] (Brain); 0.12 ± 0.02 %ID/g in data set [3] (Heart); 0.12 ± 0.04 %ID/g in data set [3] (Intestine); 37.5 ± 12.1 %ID/g in data set [3] (Kidney); 0.14 ± 0.01 %ID/g in data set [3] (Liver). In addition, the tissue uptake at 1 h in data set [3] (Lung) came to 0.4 ± 0.04 %ID/g; in data set [3] (Muscle) it was 0.06 ± 0.002 %ID/g; in data set [3] (Spleen), 0.59 ± 0.12 %ID/g; in data set [3] (Tumor LNCaP) it was 4.3 ± 0.27 %ID/g.
Take `O=C([O-])CN1CCN(CC(=O)[O-])CCN(CC(=O)NCC2CCC(C(=O)N[C@@H](Cc3ccc4ccccc4c3)C(=O)NCCCC[C@H](NC(=O)N[C@@H](CCC(=O)O)C(=O)O)C(=O)O)CC2)CCN(CC(=O)[O-])CC1.[177Lu+3]` (stereo partly shown) [^177Lu-PSMA-617]: the “tumor uptake in LNCaP xenograft tumors, reference compounds” value in data set [4] (reference values (4), 1 h p.i. printed for 177Lu-PSMA-617) is 8.47±4.09 % ID/g. The “kidney uptake, reference compounds” value in data set [4] (reference values (4)) is reported as 137.2±77.8 % ID/g.
Broadly, the Kd is a measure of binding affinity in units of concentration. As to “[Glu-urea-Lys(Ahx)]2-HBED-CC [^68Ga-PSMA-10]”, the Kd in data set [2] (radioligand 68Ga-PSMA-10, reference (1)) was 3.8 nM.
Regarding “^68Ga-Glu-urea-Lys-2-Nal-Chx-Lys(IRDye800CW)-DOTA”, in data set [4] (mouse, in vivo), the “kidney uptake, reference compounds” value was 65.64±6.60 % ID/g.

(Values after patent publication US20250360236A1, “PROSTATE SPECIFIC MEMBRANE ANTIGEN (PSMA) LIGANDS” (Deutsches Krebsforschungszentrum Stiftung des öffentlichen …, priority 2022, published 2025).)
